We go through 1 molecule from patent publication US20160003843A1 (published 2016).

Assay [1] has as its target T1, unphosphorylated Thr peptide (Thr at position 8 of …).
T1 sequence (chain, enzymatically biotinylated on the biotin acceptor peptide (BirA)): KGNYVVTTH
The assay is described as follows: competition phage ELISA; Asp8 to Thr peptide as soluble competitor.

Assay [2] concerns the target T2, wild-type peptide KGNYVVTDH (NusA-KGNYVVTDH) (also: fused to NusA, biotinylated on biotin acceptor peptide (BirA), N-terminal His6 tag).
T2 construct: also called WT Asp; the native target for the 1i8i Fab; not shown: N-terminal His6 tag and biotin acceptor peptide; NusA, fusion partner
T2 chain: KGNYVVTDH
The assay is described as follows: SPR (Biacore 4000); biotinylated antigen captured on NeutrAvidin CM5 chip, Fab in flow; 1:1 Langmuir fit. As for the experimental part: Surface plasmon resonance data were measured on a Biacore model 4000 (Biacore, Uppsala, Sweden). All proteins were in TBS containing 0.1 mg/mL BSA and 0.01% Tween-20. A Biacore CM5 chip was coated with NeutrAvidin at 3000 RU and biotinylated antigens were captured at <100 RU.

Assay [3] addresses T3, unphosphorylated Ser peptide (Ser at position 8 of …) (also: fused to NusA, biotinylated on biotin acceptor peptide (BirA), N-terminal His6 tag).
T3 construct: also called Ser/Thr (Ser member); not shown: N-terminal His6 tag and biotin acceptor peptide; NusA, fusion partner
T3 chain: KGNYVVTSH
Kind of assay: competition phage ELISA; Asp8 to Ser peptide as soluble competitor. The text has this: Without being bound by theory, the carboxylate group of Asp8 residue might mimic a phosphorylated residue and thus, the Ab can bind peptides with pSer, pThr, or possibly pTyr in place of Asp8 (Table 5).
Various concentrations of Fab-phage were mixed with a fixed concentration of biotinylated peptide and captured on the NeutrAvidin-coated wells for fifteen minutes. The bound phage were then detected using a horseradish peroxidase (HRP)-conjugated anti-M13 monoclonal (GE Healthcare). For phage competition ELISAs, plates were coated with 10 μg/mL NusA-[…] (the native target for the 1i8i Fab and a weak binder to pSAb, pSTAb, and pYAb), and blocked with 2% BSA. Sub-saturating levels of phage were then pre-bound to the various peptide antigens for two hours at 20° C. and then captured on the NusA-peptide coated plates for fifteen minutes. […] Bound scFv-Fc were detected with HRP-conjugated Protein A (Pierce).

The target in assay [4] is Ala mutant peptide (Ala at position 8 of …). Kind of assay: competition phage ELISA; Asp8 to Ala peptide as soluble competitor.
The target in assay [5] is Tyr mutant peptide (Tyr at position 8 of …). Kind of assay: competition phage ELISA; Asp8 to Tyr peptide as soluble competitor.

Ends that are not written are not given here.

B1: humanized Fab (humanized version of the mouse 1i8i Fab; parent scaffold, CDR H2 loop STGGYN) (Fab, V domains shown)
VH: EVQLVESGGGLVQPGGSLRLSCVTSGFTFRKFGMSWVRQAPGKGLEWVASISTGGYNTYYSDSVKGRFTISRDNSKNTLYLQMNSLRAEDTAVYYCTRGYSSTSYAMDYWGQGTLVTVSS
VL: DIVLTQSPATLSLSPGERATLSCMTSTDIDDDMNWYQQKPGQAPRLLISEGNTLRPGVPARFSGSGSGTDFTLTISSLEPEDFAVYYCLQSFNVPLTFGQGTKVEIKR
notes: also called parent Fab; humanized scaffold
For the molecule B1, the fold less binding than to the wild-type Asp8 peptide in assay [1], in assay [3], in assay [4] and in assay [5] was over 100 fold in each case. Also, in assay [2], the Kd is 9.6 nM. Besides, the koff in assay [2] came to 0.0032 s⁻¹. This molecule also had a kon in assay [2] of 338000 M⁻¹ s⁻¹.
